In experiment [1] the test system is PP2CA. The experiment is described as follows: BiFC assay with PP2CA in N. benthamiana leaves. Format: cell-based. Conditions: no exogenous ABA. The protocol:
Experiments were performed basically as described by Voinnet et al., (2003). The different binary vectors described above where introduced into Agrobacterium tumefaciens C58C1 (pGV2260) (Deblaere et al., 1985) by electroporation and transformed cells were selected in LB plates supplemented with kanamycin (50 μg/ml). Then, they were grown in liquid LB medium to late exponential phase and cells were harvested by centrifugation and resuspended in 10 mM morpholinoethanesulphonic (MES) acid-KOH pH 5.6 containing 10 mM MgCl2 and […] acetosyringone to an OD600 nm of 1. These cells were mixed with an equal volume of Agrobacterium C58C1 (pCH32 35S:p19) expressing the silencing suppressor p19 of tomato bushy stunt virus (Voinnet et al., 2003) so that the final density of Agrobacterium solution was about 1. Bacteria were incubated for 3 h at room temperature and then injected into young fully expanded leaves of 4-week-old N. benthamiana plants. Leaves were examined after 3-4 days under a Leica TCS-SL confocal microscope and laser scanning confocal imaging system. Quantification of fluorescent protein signal was done as described (Gampala et al., 2007) using the National Institutes of Health (NIH) Image software ImageJ v1.37. […]

In experiment [2] the target is T1, PP2CA (clade A protein phosphatase 2C, At3g11410) (Arabidopsis thaliana, UniProt P49598 1-399, limits assumed).
T1 construct: BiFC: PP2CA-YFPN (pSPYNE-35S); also called AtPP2CA
T1 sequence (looked up): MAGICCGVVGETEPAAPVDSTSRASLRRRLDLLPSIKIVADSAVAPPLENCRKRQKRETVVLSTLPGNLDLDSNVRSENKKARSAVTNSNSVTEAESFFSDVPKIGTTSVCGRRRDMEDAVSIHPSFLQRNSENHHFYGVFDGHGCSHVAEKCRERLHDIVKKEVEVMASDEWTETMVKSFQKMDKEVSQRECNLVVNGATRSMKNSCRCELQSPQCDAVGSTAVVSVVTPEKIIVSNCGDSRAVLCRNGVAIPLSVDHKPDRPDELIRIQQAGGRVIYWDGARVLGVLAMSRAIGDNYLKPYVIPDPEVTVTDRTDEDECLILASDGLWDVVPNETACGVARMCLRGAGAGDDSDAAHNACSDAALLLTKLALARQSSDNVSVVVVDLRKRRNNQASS
The experiment is described as follows: yeast two-hybrid growth assay, absence of ABA; H82R was found combined with V97A.

Experiment [3] deals with RAB18. The experiment is described as follows: Quantitative RT-PCR of ABA-responsive gene RAB18 in OE plants. The format is in vivo, Arabidopsis thaliana. As for the experimental part: (§1) ABA treatment, RNA extraction and quantitative RT-PCR amplifications were performed as previously described (Saez et al., 2004).
Experiment [4] concerns RD29B. Nature of the experiment: Quantitative RT-PCR of ABA-responsive gene RD29B in OE plants. The format is in vivo, Arabidopsis thaliana. The protocol: as §1
In experiment [5] the target is PP2CA (Arabidopsis thaliana, UniProt O80920+P49598, A194T). Nature of the experiment: In vitro reconstitution: PP2CA-mediated dephosphorylation of OST1, ΔC-ABF2, ΔC-ABI5, SLAC1 1-186. Format: biochemical. Set-up: made in house; host or cells: E. coli BL21 (DE3). The protocol: Phosphatase activity was measured using as a substrate either pNPP or phosphorylated ΔC-ABF2, ΔC-ABI5 and SLAC11-186 proteins. For the pNPP substrate, assays were performed in a 100 μl solution containing 25 mM Tris-HCl pH 7.5, 2 mM MnCl2 and 5 mM pNPP. Assays contained 2 μM phosphatase (PP2CA or HAB1), 4 μM receptor and the indicated concentrations of ABA. Phosphatase activity was recorded with a ViktorX5 reader at 405 nm every 60 seconds over 30 minutes and the activity obtained after 30 minutes is indicated in the graphics. In order to obtain phosphorylated ΔCABF2, ΔC-ABI5 and SLAC11-186 proteins, OST1 phosphorylation assays were done basically as described previously (Dupeux et al., 2011 b). ΔC-ABF2 and SLAC11-186 N-terminal fragments were prepared as described (Antoni et al., 2012; Vahisalu et al., 2010). ΔC-ABI5 recombinant protein (amino acid residues 1-200, containing the C1, C2 and C3 target sites of ABA-activated SnRK2s) was expressed in the pETM11 vector as described above. The reaction mixture containing the OST1 kinase and either ΔCABF2, ΔC-ABI5 or SLAC11-186 recombinant proteins were incubated for 50 min at room temperature in 30 μl of kinase buffer: 20 mM Tris-HCl pH 7.8, 20 mM MgCl2, 2 mM MnCl2, and 3.5 μCi of γ-32ATP (3000 Ci/mmol). Thus, OST1 was autophosphorylated and in turn it phosphorylated ΔC-ABF2, ΔC-ABI5 and SLAC11-186 proteins. […] The reaction was stopped by adding Laemmli buffer and the proteins were separated by SDS-PAGE using an 8% acrylamide gel and transferred to an Immobilon-P membrane (Millipore). Radioactivity was detected and quantified using a Phosphorimage system (FLA5100, Fujifilm). After scanning, the same membrane was used for Ponceau staining. The data presented are averages of at least three independent experiments.

Setting [6] is: absence of exogenous ABA treatment.
[7] abbreviates: 30 μM ABA, 1:10 phosphatase:receptor.

“PYL4: AtPYL4 wild type ABA receptor polypeptide (SEQ ID NO:3, At2g38310) [reference compound]”: the “localization of interaction with PP2CA” value in experiment [1] is “localized mostly to the nucleus”.

B1: PYL4H82R V97A (AtPYL H82 and V97A) (receptor)
chain: MLAVHRPSSAVSDGDSVQIPMMIASFQKRFPSLSRDSTAARFHTHEVGPNQCCSAVIQEISAPISTVWSVVRRFDNPQAYKRFLKSCSVIGGDGDNAGSLRQVHVVSGLPAASSTERLDILDDERHVISFSVVGGDHRLSNYRSVTTLHPSPISGTVVVESYVVDVPPGNTKEETCDFVDVIVRCNLQSLAKIAENTAAESKKKMSL
notes: also called PYL4H82R (found combined with V97A)
For the molecule B1, the binding result in experiment [2] is “binds”.

B2: PYL4A194T: AtPYL4 ABA receptor mutant polypeptide with A194T substitution (SEQ ID NO. 60; nucleic acid SEQ ID NO: 55); also over-expressed in plants (protein, listed as Arabidopsis thaliana)
chain: MLAVHRPSSAVSDGDSVQIPMMIASFQKRFPSLSRDSTAARFHTHEVGPNQCCSAVIQEISAPISTVWSVVRRFDNPQAYKHFLKSCSVIGGDGDNVGSLRQVHVVSGLPAASSTERLDILDDERHVISFSVVGGDHRLSNYRSVTTLHPSPISGTVVVESYVVDVPPGNTKEETCDFVDVIVRCNLQSLAKITENTAAESKKKMSL
In the case of B2, the “localization of interaction with PP2CA” value in experiment [1] is “relatively much more abundant in the cytosol compared to PYL4”. Moreover, the “induction of RAB18 after ABA-treatment” value in experiment [3] (10 μM ABA for 3 h) was “not higher than in non-transformed plants”. Also, the “expression of RAB18 up-regulated compared to non-transformed plants” value in experiment [3] (setting [6]) is given as 6 fold. Also, the “induction of RD29B after ABA-treatment” value in experiment [4] (10 μM ABA for 3 h) is “not higher than in non-transformed plants”. For the same molecule, the “expression of RD29B up-regulated compared to non-transformed plants” value in experiment [4] (setting [6]) is 23 fold. Moreover, in experiment [5] (setting [7]), the “inhibition of dephosphorylation by PP2CA of ΔC-ABI5 and SLAC1 1-186” value is “inhibited better than PYL4”; the “inhibition of dephosphorylation of ΔC-ABF2” value was “not more effective than PYL4”. Moreover, the “inhibition of dephosphorylation of ΔC-ABF2, ΔC-ABI5 and SLAC1 1-186, better than PYL4” value in experiment [5] (0.5-1 μM ABA, 1:1 phosphatase:receptor ratio) is 2-3 fold. Besides, the “inhibition of dephosphorylation of PP2CA targets, difference to PYL4” value in experiment [5] (absence of ABA, 1:10 phosphatase:receptor) is given as “did not find significant differences”. Besides, the “protection of OST1 phosphorylation compared to PYL4” value in experiment [5] (low ABA concentrations, 1:1 phosphatase:receptor ratio) was “improved”.

The values are drawn from US20160068860A1, “TRANSGENIC PLANTS” (CONSEJO SUPERIOR DE INVESTIGACIONES CIENTIFICAS (CSIC), priority 2013, published 2016).
